Drawing on patent US20230348858, “COMPOSITIONS AND METHODS FOR PROMOTING PROLIFERATION IN CARDIOMYOCYTES” (THE TRUSTEES OF INDIANA UNIVERSITY, published 2023), this text covers Kd for one molecule.

The target of this data set is Brg1 helicase domain D1D2 (Mus musculus, UniProt Q3TKT4 SEQ:1-431). The data set can be described thus: EMSA; 10 mM HEPES-KOH pH 7.3, 10 mM NaCl, 1 mM MgCl2, 1 mM DTT, tRNA carrier, room temp. The conditions noted are these: tags: MBP fusion; label: 5'-biotin. How it is done: Biotin-labelled RNA control probe: [0158] Biotin—5′[…]-3′ (SEQ ID NO 25); and Biotin-labelled RNA probe with m⁶A: [0159] Biotin—5′[…](m⁶A)[…]-3′ (SEQ ID NO 26); were synthesized by Gene Link (Orlando, Fla.). EMSA was performed by using the LightShift™ Chemiluminescent RNA EMSA Kit (Cat. 20158, Thermo Scientific). The labelled probe was incubated with appropriate amounts of recombinant proteins in 10 μl in the 1× binding buffer (10 mM HEPES-KOH, pH 7.3, 10 mM NaCl, 1 mM MgCl2, 1 mM DTT) with 5 μg tRNA carrier at room temperature for 30 min. The reactions were then loaded onto 1% 0.5× TBE agarose gel and transferred to Bright Star Plus positive charged membrane. The biotin-labelled probes were detected and quantified subsequently using Odyssey Infrared Imaging System. The shifted signals were quantified and plotted against amount of the MBP-D1D2 protein ((SEQ ID NO 27) coupled to (SEQ ID NO 2)) with GraphPad Prism (GraphPad). The software facilitates the fitting of nonlinear regression model and calculation of Kd values based on the fitting curve. The errors and r² values were also generated from the fitting curve.
Sequence of Brg1 helicase domain D1D2 (Q3TKT4 774-1204): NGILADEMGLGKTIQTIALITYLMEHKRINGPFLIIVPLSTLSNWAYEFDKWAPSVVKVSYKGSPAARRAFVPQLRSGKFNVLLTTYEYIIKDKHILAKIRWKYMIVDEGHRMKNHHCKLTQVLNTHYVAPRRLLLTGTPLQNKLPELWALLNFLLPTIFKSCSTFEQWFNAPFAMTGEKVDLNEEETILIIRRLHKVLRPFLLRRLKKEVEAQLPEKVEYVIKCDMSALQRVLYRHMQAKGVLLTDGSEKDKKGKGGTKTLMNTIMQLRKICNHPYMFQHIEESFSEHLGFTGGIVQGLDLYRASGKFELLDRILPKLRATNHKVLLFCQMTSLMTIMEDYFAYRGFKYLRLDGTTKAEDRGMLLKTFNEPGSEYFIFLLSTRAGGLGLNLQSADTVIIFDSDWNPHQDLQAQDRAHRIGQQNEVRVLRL
In general terms: A gel shift assay detects complexes by their altered migration in electrophoresis.

A word on the Kd: it is a measure of binding affinity in units of concentration. A lower Kd goes with tighter binding. UCGUCAUGGCUGAACUGCGGUUGUACACGCUGGUGCAGAGAGAUCGCAU (ssRNA, m6A at A25 (M2 adenosine)) [Bmp10 RNA probe with m6A (49 nt)] gave a Kd of 176 nM.
